In publication PMC12098869, “An mRNA-display derived cyclic peptide scaffold reveals the substrate binding interactions of an N-terminal cysteine oxidase” (Nature Communications, 2025):
Several values for one entry are separate records, joined by “and”; a condition that tells them apart may be missing. Identical values can stand only once. Like-named read-outs stand apart in the source and are kept apart here. Blank lines part the entries; values can stand above or below the molecule they belong to. Where a SMILES comes first, the peptide text is derived from it. Bridges are numbered along the chain shown (N, C = ends). Where no end group is shown, it is not given here. Side-chain parts run from the residue outwards. [ ]: non-standard residue; d: D form. Dap = NC[C@H](N)C(=O)O

Experiments:
human ADO [1] = molecular target: T1, human ADO (Homo sapiens, UniProt Q96SZ5); assay: SPR single-cycle kinetic (SCK) binding of cyclic peptides to ADO; conditions: 1:1 binding model, 4 °C, geometric mean of a minimum of three independent measurements (n = 3) with standard error
T1 construct: Full-length human ADO (Uniprot ID: Q96SZ5) was cloned; made in house; host or cells: E. coli Rosetta2(DE3)
T1 sequence (Q96SZ5 1-270): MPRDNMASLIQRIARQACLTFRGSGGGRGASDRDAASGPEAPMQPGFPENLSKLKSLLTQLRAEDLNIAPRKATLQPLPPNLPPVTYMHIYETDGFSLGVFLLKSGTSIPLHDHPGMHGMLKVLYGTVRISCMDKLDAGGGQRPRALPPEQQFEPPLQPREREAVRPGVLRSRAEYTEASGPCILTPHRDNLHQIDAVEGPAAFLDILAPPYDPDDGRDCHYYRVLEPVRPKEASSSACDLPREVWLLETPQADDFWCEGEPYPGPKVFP
Excerpt: After six cycles, clear enrichment of several CPs was observed by next-generation sequencing. The most enriched CPs (CP1-8, numbered according to their percentage enrichment in the final selection round) were selected for subsequent analysis (Table 1). CP1, 5, 6 and 7 are related in sequence, while CP2, 3, 4, and 8 are unique compositions (Fig. 1b). These CPs were subsequently produced by solid-phase peptide synthesis (SPPS) and analysed by surface plasmon resonance (SPR) using single cycle kinetic (SCK) analysis to confirm and quantify binding to ADO. ADO could interact with each CP to varying degrees (Supplementary Fig. 4, Table 1, Fig. 1dleft).
SPR measurements were made using a Biacore T200 (Cytiva) instrument and data were analysed using the Biacore Insight Evaluation Software. Biotinylated-ADO was immobilised on a Biotin CAP chip (Cytiva) with a target density of ∼2500–3000 RU and peptide/protein substrates were injected over the chip. Experiments were conducted at 4 °C using both multi-cycle (fit using the equilibrium steady state affinity 1:1 binding model) and single-cycle kinetics mode (fit using a 1:1 binding model). A buffer comprising 20 mM HEPES pH 7.5, 500 mM NaCl, 10 mM DTT, and 0.1% (v/v) tween-20 was used as the running buffer at a flow rate of 50 μL/minute.

human ADO [2] = molecular target: T1, human ADO; assay: ADO activity inhibition assay (RGS5_2-15 oxidation monitored by LCMS): single-dose and IC50; type: biochemical
Experimental: We next tested the ability of the CPs to inhibit ADO activity. ADO activity was measured with and without 10 μM of each CP using an established stopped assay in which the oxidation of a representative substrate (RGS5_2-15; a synthetic peptide corresponding to the methionine excised N-terminus of RGS5, residues 2 to 15) was monitored by liquid chromatography coupled mass spectrometry (LCMS)[7],[35],[36].
The enzymatic activity of ADO was examined by incubating between 0–1000 μM peptide substrates with 0.1 μM ADO in a bench-top thermomixer at 37 °C for 45 seconds. Otherwise stated, the reaction buffer contained 50 mM Tris pH 7.5, 50 mM NaCl, and 5 mM TCEP. The reactions were quenched by mixing the sample 1:10 with 1% formic acid (v/v).
Peptide samples were injected onto a Chromolith® RP-18 Endcapped HPLC Columns (100–2 mm; Merck), heated to 40 °C and eluted at 0.3 ml/min using a gradient of 95% deionised water supplemented with 0.1% (v/v) formic acid to 95% acetonitrile. Oxidation was monitored by an ultra-high-performance liquid chromatography (UHPLC) mass spectrometry (MS) using ExionLC AD (Sciex) and SelexION (Sciex) mass spectrometer operated in a positive electrospray time-of-flight ( + ESI-TOF) mode. Instrument parameters, data acquisition and data processing were controlled by Analyst software (Sciex). The peptide data processing was performed using Skyline software. Turnover was quantified by comparing the areas underneath the product and substrate ions extracted from the total ion current chromatogram. All figures and parameters were generated using GraphPad Prism 9.

[3] = molecular target: 2-aminoethanethiol dioxygenase (ADO), wild type, biotinylated (pQE80L-Navi-ADO) (human); assay: SPR; multi-cycle, equilibrium steady state affinity 1:1 binding model; biotinylated ADO or variant immobilised on a Biotin CAP chip (~2500-3000 RU), peptide injected; 4 °C; 20 mM HEPES pH 7.5, 500 mM NaCl, 10 mM DTT, 0.1% (v/v) tween-20; 50 μL/minute
[4] = molecular target: ADO-D206N, biotinylated (pQE80L-Navi-ADO) (human) (UniProt Q96SZ5); assay: SPR; single-cycle kinetics (SCK), 1:1 binding model; biotinylated ADO or variant immobilised on a Biotin CAP chip, peptide injected at 25.6, 64, 160, 400, 1000 nM; 4 °C; 20 mM HEPES pH 7.5, 500 mM NaCl, 10 mM DTT, 0.1% (v/v) tween-20; 50 μL/minute
[5] = molecular target: T2, 2-aminoethanethiol dioxygenase (ADO), full-length human, N-terminally His-tagged and biotinylated … (human, UniProt Q96SZ5 1-270, biotin (biotinylated during expression, 0.2 mM biotin added)); assay: SPR; single cycle kinetic (SCK) analysis, 1:1 binding model; biotinylated ADO immobilised on a Biotin CAP chip (~2500-3000 RU), cyclic peptides injected; 4 °C; 20 mM HEPES pH 7.5, 500 mM NaCl, 10 mM DTT, 0.1% tween-20; 50 μL/minute; conditions: both partners purified
T2 construct: 2-aminoethanethiol dioxygenase (ADO), human, UniProt Q96SZ5, full length; Construct used for RaPID screening and all SPR experiments; No tag cleavage step is described in its purification; also called wild type ADO; biotinylated ADO; source: E. coli Rosetta2(DE3), purified (Ni-NTA, SEC); not shown: biotinylation tag (from the vector pQE80L-Navi), N-terminal, kept
T2 sequence (looked up): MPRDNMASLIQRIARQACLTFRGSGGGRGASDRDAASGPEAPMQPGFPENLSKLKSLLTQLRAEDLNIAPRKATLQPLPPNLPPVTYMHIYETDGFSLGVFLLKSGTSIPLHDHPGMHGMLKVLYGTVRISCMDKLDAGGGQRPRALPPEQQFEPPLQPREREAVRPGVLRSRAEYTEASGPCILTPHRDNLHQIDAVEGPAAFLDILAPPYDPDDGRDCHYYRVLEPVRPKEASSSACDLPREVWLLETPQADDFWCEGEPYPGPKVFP

[6] = molecular target: ADO with a change in Y212 (ADO-Y212) (human) (UniProt Q96SZ5); assay: SPR; biotinylated ADO (wild type or mutant) immobilised on a Biotin CAP chip, substrate peptides injected; 4 °C; 20 mM HEPES pH 7.5, 500 mM NaCl, 10 mM DTT, 0.1% tween-20; multi-cycle or single-cycle mode not given
[7] = molecular target: ADO with a change in F101 (ADO-F101) (human) (UniProt Q96SZ5); assay: as above
[8] = molecular target: T3, 2-aminoethanethiol dioxygenase (ADO), full-length human, N-terminally His-tagged and biotinylated … (human, UniProt Q96SZ5 1-270, biotin (biotinylated during expression, 0.2 mM biotin added)); assay: SPR; single-cycle kinetics (1:1 binding model); biotinylated ADO immobilised on a Biotin CAP chip (~2500-3000 RU), cyclic peptide injected; Biacore T200, 4 °C; 20 mM HEPES pH 7.5, 500 mM NaCl, 10 mM DTT, 0.1% tween-20; 50 µL/minute; each cell is one of three independent measurements; conditions: both partners purified
T3 construct: 2-aminoethanethiol dioxygenase (ADO), human, UniProt Q96SZ5, full length; Immobilised through its biotin on a Biotin CAP chip for SPR; also called wild type ADO; Biotinylated-ADO; source: E. coli Rosetta2(DE3), purified (Ni-NTA, SEC); not shown: biotinylation tag (from the vector pQE80L-Navi), N-terminal, kept
T3 sequence (looked up): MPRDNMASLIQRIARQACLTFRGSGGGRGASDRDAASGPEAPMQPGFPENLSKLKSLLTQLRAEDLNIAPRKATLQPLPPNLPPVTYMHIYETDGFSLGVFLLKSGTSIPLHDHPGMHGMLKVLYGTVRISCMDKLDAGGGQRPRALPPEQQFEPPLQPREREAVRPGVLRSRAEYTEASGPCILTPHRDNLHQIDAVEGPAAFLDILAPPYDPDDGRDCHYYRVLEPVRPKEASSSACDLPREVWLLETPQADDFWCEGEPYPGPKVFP
Outline: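 Biotinylated full-length human ADO was made in E. coli with a His tag, then purified by nickel affinity and gel filtration. It was captured on a Biotin CAP chip at about 2500–3000 RU in a Biacore T200, and cyclic peptides were flowed over it. The run was at 4 °C in HEPES pH 7.5 buffer with 500 mM NaCl, DTT and tween-20, at 50 µL/minute. Kd came from a 1:1 binding fit of single-cycle kinetic sensorgrams, with three independent measurements.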

[9] = molecular target: T3, 2-aminoethanethiol dioxygenase (ADO), …; assay: SPR; single-cycle kinetics (1:1 binding model); biotinylated ADO immobilised on a Biotin CAP chip (~2500-3000 RU), cyclic peptide injected; Biacore T200, 4 °C; 20 mM HEPES pH 7.5, 500 mM NaCl, 10 mM DTT, 0.1% tween-20; 50 µL/minute; each cell is one of three independent measurements; conditions: both partners purified; remark: listed apart in the source
[10] = RGS5_2-15 substrate, LCMS, 37 °C, average of three independent experiments (n = 3), standard error, read-out: IC50

Molecule: CC(C)C[C@@H]1NC(=O)[C@H](Cc2ccc(O)cc2)NC(=O)[C@H](CC(C)C)NC(=O)[C@H]([C@@H](C)O)NC(=O)[C@H](C(C)C)NC(=O)[C@H](CC(C)C)NC(=O)[C@H](CC(C)C)NC(=O)[C@H](Cc2ccc(O)cc2)NC(=O)CSC[C@@H](C(N)=O)NC(=O)[C@H](CO)NC(=O)[C@H](CCCNC(=N)N)NC(=O)[C@H](Cc2c[nH]cn2)NC(=O)[C@H]([C@@H](C)O)NC(=O)CNC1=O [CP7] ({CH2CO}-YLLVTLYLGTHRSC-NH2; thioether N-14)
KD (human ADO [1]): non-specific binding
IC50 (human ADO [2]; [10]): 9920 ± 290 nM

Molecule: IL32_(2-15), synthetic peptide corresponding to the methionine excised N-terminus of IL32, residues 2-15 (from UniProt P24001 2-15)
Kd [3]: 460 nM
Kd [4]: 70 nM

Molecule: CC[C@H](C)[C@@H]1NC(=O)[C@H](Cc2ccc(O)cc2)NC(=O)CSC[C@@H](C(N)=O)NC(=O)[C@H](CCC(N)=O)NC(=O)[C@H](CCCNC(=N)N)NC(=O)[C@H](Cc2c[nH]cn2)NC(=O)[C@H](CO)NC(=O)CNC(=O)[C@H](CC(C)C)NC(=O)[C@H](Cc2c[nH]c3ccccc23)NC(=O)[C@H](CO)NC(=O)[C@H]([C@@H](C)O)NC(=O)[C@H](CCCCN)NC(=O)[C@H](C(C)C)NC1=O [CP6-F6S] ({CH2CO}-YIVKTSWLGSHRQC-NH2; thioether N-14)
IC50 (human ADO [2]; as given in the legend of Fig. 2c (concentration of CP added), read-out: half-maximal inhibitory concentration (IC50)): 200 nM

Molecule: CC[C@H](C)[C@@H]1NC(=O)[C@H]([C@@H](C)O)NC(=O)CNC(=O)[C@H](CC(C)C)NC(=O)[C@H](C(C)C)NC(=O)[C@H](Cc2ccc(O)cc2)NC(=O)[C@H](Cc2ccc(O)cc2)NC(=O)[C@H](Cc2ccc(O)cc2)NC(=O)CSC[C@@H](C(N)=O)NC(=O)[C@H](Cc2ccccc2)NC(=O)[C@H](CCCNC(=N)N)NC(=O)[C@H](Cc2ccc(O)cc2)NC(=O)[C@H](CCCNC(=N)N)NC(=O)[C@H](CCCCN)NC(=O)[C@H](C(C)C)NC(=O)[C@H](CC(C)C)NC1=O [CP4] ({CH2CO}-YYYVLGTILVKRYRFC-NH2; thioether N-16)
Kd (human ADO [1]): 1300 ± 140 nM
IC50 (human ADO [2]; [10]): > 50000 nM

B1: CP6-L8d-Phe-Ser (peptide)
chain: {CH2CO}-YIVKTFW[Dap]([Phe-Ser])GSHRQC
modifications: thioether N-14
Kd [5]: 79 nM

B4: CP6-L8d-Lys-Ser (peptide)
chain: {CH2CO}-YIVKTFW[Dap]([Lys-Ser])GSHRQC
modifications: thioether N-14
Kd [5]: 490 nM

B5: RGS5_(2-15), synthetic peptide corresponding to the methionine excised N-terminus of RGS5, residues 2 to 15 (peptide)
peptide: CKGLAALPHSCLER
fold increase in KD relative to wild type ADO [6]: < 113 fold
fold increase in KD relative to wild type ADO [7]: < 80 fold

B6: Cyclic peptide CP6 (peptide)
peptide: {CH2CO}-YIVKTFWLGSHRQC-NH2
modifications: thioether N-14
SMILES: CC[C@H](C)[C@@H]1NC(=O)[C@H](Cc2ccc(O)cc2)NC(=O)CSC[C@@H](C(N)=O)NC(=O)[C@H](CCC(N)=O)NC(=O)[C@H](CCCNC(=N)N)NC(=O)[C@H](Cc2c[nH]cn2)NC(=O)[C@H](CO)NC(=O)CNC(=O)[C@H](CC(C)C)NC(=O)[C@H](Cc2c[nH]c3ccccc23)NC(=O)[C@H](Cc2ccccc2)NC(=O)[C@H]([C@@H](C)O)NC(=O)[C@H](CCCCN)NC(=O)[C@H](C(C)C)NC1=O
notes: selected by RaPID mRNA display against ADO; source: synthetic peptide (SPPS)
Kd [8]: 50.9 nM and 50.4 nM and 50.6 nM
Kd [9]: 28.9 nM and 28.6 nM and 31.2 nM

Second part, the molecule after the results:

Kd [3]: 640 nM
Kd [4]: 150 nM
Molecule: RGS5_(2-15), synthetic peptide corresponding to the methionine excised N-terminus of RGS5, residues 2 to 15 (from UniProt O15539 2-15)

Kd [5]: 150 nM
B2: CP6-L8d-Gly-Ser (peptide)
chain: {CH2CO}-YIVKTFW[Dap]([Gly-Ser])GSHRQC
modifications: thioether N-14

fold increase in KD relative to wild type ADO [6]: < 113 fold
fold increase in KD relative to wild type ADO [7]: < 80 fold
B3: IL32_(2-15), synthetic peptide corresponding to the methionine excised N-terminus of IL32, residues 2-15 (peptide)
peptide: CFPKVLSDDMKKLK

Kd [9]: 429 nM and 397 nM and 428 nM
B7: CP6-K4A (peptide)
peptide: {CH2CO}-YIVATFWLGSHRQC
modifications: thioether N-14
notes: the substitution K4A is to be applied to them; Single amino acid substituent of CP6; source: synthetic peptide
